B1: BTBD10 (parent)
chain: DRKLHSRPRKLYKHSSTSSRIAKG
B2: CDC25A (parent)
chain: KKFRTKSRTWAGEKSKREMYSRLK

Variants of: B1
Test: protein stability index of a GFP-peptide fusion (GPS, HEK-293T) (PSI 1-6); higher = more stable
Settings: c terminus: a fixed tail appended
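Further: lentivirally expressed fusions sorted by FACS into six bins by GFP to DsRed ratio, PSI derived from sequencing read proportions per bin multiplied by bin number.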

Protein stability index, by site and new letter:
R2: N 3.96 | Q 4.19 | S 4.14 | E 4.39 | V 3.65 | C 3.62 | I 2.66 | L 2.7 | D 4.04 | Y 3.16 | G 3.95 | F 2.65 | K 3.83 | M 3.89 | H 4.46 | T 4.09 | A 3.42 | P 4.02 | W 3.68
S6: A 3.67 | L 2.4 | Q 3.89 | I 3.58 | H 3.68 | M 3.46 | V 3.91 | E 4.41 | Y 3.78 | R 3.39 | D 4.69 | C 3.43 | T 3.76 | K 3.55 | G 3.48 | P 4.42 | W 2.92 | F 3.18 | N 4.04
R9: F 3.27 | A 4.1 | W 3.51 | Q 4.11 | P 3.69 | K 4.17 | D 4.01 | G 4.3 | H 3.7 | V 3.82 | N 4.13 | E 4.19 | T 3.84 | I 3.02 | Y 3.64 | L 3.85 | C 3.74 | S 4.47 | M 3.74
R7: S 4.21 | W 2.97 | N 4.1 | V 3.28 | F 2.59 | E 4.41 | C 3.76 | Q 4.4 | T 4.31 | D 4.54 | K 3.33 | I 3.31 | M 3.84 | G 4.33 | P 4.33 | A 3.98 | Y 3.83 | L 2.84 | H 3.79
P8: L 2.76 | C 4.03 | W 3.95 | Q 4.24 | E 4.08 | T 3.31 | D 4.51 | N 3.81 | A 4.2 | K 3.67 | Y 2.82 | S 3.5 | V 3.05 | M 3.02 | I 3.65 | R 3.18 | H 4.12 | G 3.68 | F 2.21
D1: I 2.54 | Q 3.81 | T 3.16 | C 3.94 | S 3.89 | A 3.27 | F 2.9 | Y 3.03 | E 3.89 | R 3.05 | N 4 | G 3.47 | M 3.8 | P 3.42 | H 3.42 | V 3.93 | W 2.8 | L 3.2 | K 3.2
L4: A 4.42 | T 4.3 | V 3.71 | I 3.62 | P 4.11 | K 4.28 | M 4.23 | E 4.28 | R 3.9 | W 3.5 | H 4.09 | F 3.92 | S 4.71 | Q 4.08 | G 3.72 | N 3.77 | Y 3.8 | D 4.49 | C 3.9
H5: Q 3.69 | R 3.9 | S 4.34 | I 3.74 | D 3.99 | Y 3.02 | N 5.44 | C 3.9 | F 4.43 | W 3.16 | L 3.72 | A 4.22 | E 4.09 | T 4.17 | G 2.82 | V 3.02 | P 4.5 | M 3.43 | K 4.09
K3: I 3.47 | P 3.92 | E 4.03 | F 3.24 | D 4.42 | S 3.57 | R 3.63 | N 3.55 | M 3.56 | H 4.41 | V 3.92 | A 4.52 | Q 3.87 | Y 3.37 | W 3.64 | T 3.83 | L 3.77 | C 3.95

Variants of: B2
Test: as above
Settings: c terminus: a fixed tail appended

Protein stability index of substitutions, site by site:
R17: Q 3.17 | Y 3.4 | T 3.48 | D 3.6 | L 2.84 | I 3.25 | H 3 | V 2.97 | K 2.21 | C 3.34 | S 3.08 | A 2.77 | N 2.24 | G 2.99 | F 2.86 | P 4.04
S15: G 2.52 | I 2.45 | Q 2.38 | V 2.52 | F 3.34 | K 3.14 | H 3.12 | R 2.73 | W 1.3 | D 3.3 | N 2.52 | L 2.58 | M 3.2 | T 3.88 | C 3.4 | Y 1.94 | A 3.72
K14: Y 2.25 | W 1.6
S21: E 3.01 | F 2.7 | K 3.08 | N 3.21 | R 2.73 | I 2.25 | G 3.32 | Y 2.01 | M 3.36 | A 2.97 | L 3.38 | T 2.56 | C 2.56 | Q 2.54 | D 2.95 | P 2.99 | H 2.69
L23: W 2.41 | T 3.61 | Q 3.74 | C 2.87 | V 3.65 | R 4.46 | N 4.01 | P 3.94 | M 2.73 | H 3.39 | I 3.33 | Y 2.57 | A 3.49 | S 3.92 | K 3.84
K24: H 2.62 | T 2.94 | S 3.16 | N 3.32 | C 2.08 | G 2.52 | F 2.06 | I 2.32 | Y 1.37 | L 2.31 | M 2.37 | E 3.27 | A 2.37 | R 2.91 | D 3.13 | P 3.49 | Q 2.58
K16: Y 2.38 | D 3.24 | M 3.99 | A 2.62 | H 3.56 | S 3.04 | P 3.11 | V 2.78 | Q 3.71 | N 3 | R 1.22 | W 2.1 | L 3.16 | G 2.79 | I 2.28
E18: N 3 | S 2.43 | H 2.71 | M 2.87 | Y 1.9 | G 2.98 | W 4.23 | Q 2.37 | L 2.64 | K 1.94 | C 3.07 | P 2.17 | T 2.19 | I 3.64 | F 2.88 | D 3.12
Y20: F 2.88 | S 4.69 | P 4.12 | Q 4.34 | D 3.35 | C 3.97 | H 3.01 | T 3.41 | N 3.02 | K 4.45 | M 3.29 | V 2.92 | L 2.33 | I 3.13 | W 2.37
R22: Y 2.03 | S 2.79 | F 2.99 | L 2.82 | I 2.01 | H 3.02 | K 2.92 | V 3.24 | G 3.92 | P 2.33 | D 2.49 | A 2.19 | C 3.17 | T 3.41 | M 3.13 | N 3.81 | W 2.28 | Q 2.83
M19: A 3.13 | S 4.21 | E 3.79 | Q 4.14 | P 3.41 | H 3.54 | R 3.44 | N 4.2 | I 2.8 | Y 3.24 | D 4.05 | L 2.7 | F 3.53 | K 4.05 | T 3 | W 2.77

Reference: the supplement of paper PMC10567573
